Measurements from patent US12497460B2, “Anti-MSR1 antibodies and methods of use thereof” (REGENERON PHARMACEUTICALS, INC., priority 2018, dated 2025).
Residue numbers refer to the chain shown, from its start. Names and notes keep the numbering of the source.

How the values were obtained:
[1] = target: T1, His9-hMSR1 (human MSR1 extracellular domain) (Homo sapiens, UniProt P21757); experiment: Biacore T200 surface plasmon resonance binding kinetics of anti-MSR1 antibody-drug conjugates and parental antibodies; conditions: 25° C.; for ka: Table 19, antibody-LXR ADCs and unconjugated antibodies; for kd: Table 19, * = no dissociation observed, kd manually fixed at 1.00E−05
T1 construct: human MSR1 extracellular domain expressed with a N-terminal nonahistidine tag; His9 (nonahistidine) (N); purchased R&D Systems 2708-MS
T1 sequence (P21757 77-451 limits assumed): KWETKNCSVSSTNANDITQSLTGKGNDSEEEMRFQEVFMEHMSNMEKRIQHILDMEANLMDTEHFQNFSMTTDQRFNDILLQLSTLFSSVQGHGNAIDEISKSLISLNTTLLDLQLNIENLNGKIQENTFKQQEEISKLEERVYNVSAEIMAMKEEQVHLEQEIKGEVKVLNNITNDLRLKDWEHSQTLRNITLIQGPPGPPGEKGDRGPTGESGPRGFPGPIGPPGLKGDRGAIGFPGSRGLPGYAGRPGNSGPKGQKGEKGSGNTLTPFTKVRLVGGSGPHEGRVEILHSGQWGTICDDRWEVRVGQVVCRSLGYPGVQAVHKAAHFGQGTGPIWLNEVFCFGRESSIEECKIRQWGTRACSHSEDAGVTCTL
Description: The MSR1 antibodies disclosed herein were conjugated to various liver X receptor (LXR) payloads or various steroid payloads. This example describes how equilibrium dissociation constant (KD) values for human MSR1 reagents binding to human anti-MSR1 antibody-drug conjugates and their corresponding unconjugated parental antibodies were determined using a real-time surface plasmon resonance-based Biacore T200 biosensor.
All binding studies were performed in 10 mM HEPES, 300 mM NaCl, 3 mM EDTA, and 0.05% v/v Surfactant Tween-20, pH 7.4 (HBS-ET) running buffer at 25° C. The Biacore CM4 sensor chip surface was first derivatized by amine coupling with the goat anti-human Fcγ specific polyclonal antibody (Jackson ImmunoResearch Laboratories, Cat #BR-1008-39) to capture anti-MSR1 monoclonal antibodies. Binding studies were performed on human MSR1 extracellular domain expressed with a N-terminal nonahistidine tag (His9-hMSR1; R&D Systems, Cat #2708-MS).
(§1) The association rate (ka) and dissociation rate (kd) were determined by fitting the real-time binding sensorgrams to a 1:1 binding model with mass transport limitation using Scrubber 2.0c curve-fitting software. Binding dissociation equilibrium constant (KD) and dissociative half-life (t½) were calculated from the kinetic rates as: […]
Binding kinetics parameters for His9-hMSR1 binding to different anti-MSR1 antibody-LXR ADCs and their unconjugated parental antibodies at 25° C. are shown in Table 19. “LP1” represents a linker-payload for which the payload structure is provided in Example 11.
The binding studies were repeated with anti-MSR1 antibody H1H21234-N297Q and steroid linker payloads (LPs). “LP3” represents a linker-payload for which the structure is provided in Example 23, and “LP13” represents a linker-payload for which the structure is provided in Example 24.

[2] = target: HMM-mfMSR1 (monkey MSR1 extracellular domain); experiment: Biacore surface plasmon resonance binding kinetics of anti-MSR1 mAbs, antibody-capture format; conditions: analyte HMM-mfMSR1, NB = no binding observed; for kd: * = no dissociation observed, kd manually fixed at 1.00E−05; for ka: antibody-capture format; for Kd: calculated from kinetic rates; for t½: dissociative half-life
Description: (§2) Binding affinities and kinetic constants of human anti-MSR1 antibodies for different MSR1 reagents were determined by real-time surface plasmon resonance (Biacore 4000). All binding studies were performed in 10 mM HEPES, 150 mM NaCl, 3 mM EDTA, and 0.05% v/v Surfactant Tween-20, pH 7.4 (HBS-ET) running buffer at 25° C. and 37° C.
as §1

[3] = target: T1, His9-hMSR1 (human MSR1 extracellular domain); experiment: as above; conditions: analyte His9-hMSR1, NB = no binding observed; for kd: * = no dissociation observed, kd manually fixed at 1.00E−05; for ka: antibody-capture format; for Kd: calculated from kinetic rates; for t½: dissociative half-life
Description: as §2, §1

parental HEK293 cells = experiment: Electrochemiluminescence antibody binding assay, non-specific binding control cells; format: cell-based, human

HMM-mfMSR1 (monkey MSR1 extracellular domain), sequence (as listed by the source): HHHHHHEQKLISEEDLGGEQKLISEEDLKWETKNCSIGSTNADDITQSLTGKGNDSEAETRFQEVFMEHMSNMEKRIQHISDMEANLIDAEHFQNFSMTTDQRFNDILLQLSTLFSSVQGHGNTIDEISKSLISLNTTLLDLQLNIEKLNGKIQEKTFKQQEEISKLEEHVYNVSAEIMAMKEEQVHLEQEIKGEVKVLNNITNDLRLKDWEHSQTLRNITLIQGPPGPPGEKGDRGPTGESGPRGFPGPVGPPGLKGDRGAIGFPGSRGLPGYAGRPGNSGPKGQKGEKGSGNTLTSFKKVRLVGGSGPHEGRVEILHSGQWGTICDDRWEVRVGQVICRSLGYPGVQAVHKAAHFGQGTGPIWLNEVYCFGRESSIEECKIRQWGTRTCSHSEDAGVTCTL

B1: H1H27731P-N297Q: one of "Twelve anti-MSR1 antibodies"; "made with an N297Q single point mutation in human Fcγ portion" (antibody, V domains shown)
VH: QLQLQESGPGLVKPSETLSLTCTVSGGSISRISYYWGWIRQPPGKGLEWIGSIYDSGSTYYNPSLKSRVTISIDTSKNQFSLKLSSVTAADTAVYYCVRYSSSSAFAFDYWGQGTLVTVSS
VL: DIQMTQSPSSVSASVGDRVTITCRASQGISSWLAWYQQKPGKAPKLLIYAASSLQSGVPSRFSGSGSGTDFTLTISSLQPEDFATYYCQQANSFPFTFGPGTKVDIKR
Molecule B1 has a ka [1] of 117000 M⁻¹ s⁻¹, a kd [1] of 1e-05 s⁻¹ and a kd ([2]; 25° C.) of 4.69e-05 s⁻¹. It also gave a ka ([2]; 25° C.) of 98200 M⁻¹ s⁻¹, a kd ([2]; 37° C.) of 0.000187 s⁻¹ and a ka ([2]; 37° C.) of 278000 M⁻¹ s⁻¹. The kd ([3]; 25° C.) was 2.24e-05 s⁻¹, the ka ([3]; 25° C.) was 129000 M⁻¹ s⁻¹ and the kd ([3]; 37° C.) was 0.000132 s⁻¹. For the same molecule, the ka ([3]; 37° C.) was 286000 M⁻¹ s⁻¹ and the “Ratio of 11 nM Antibody Binding Signal (RLU) to isotype control, HEK293” value (shortened to “Ratio of 11 nM Antibody Binding Signal”) (parental HEK293 cells) was 7.

B2: H1H27754P-N297Q: one of "Twelve anti-MSR1 antibodies"; "made with an N297Q single point mutation in human Fcγ portion" (antibody, V domains shown)
VH: EVQLVESGGGLVQPGGSLRLSCAASGFTFRTYAMTWVRQAPGKGLDWVSAITGDGGNTYYADSVKGRFTISRDNSKNTLYLQMNSLRAEDTAIYYCAKDQRFSFALYYFDYWGQGTLVTVSS
VL: B1 VL with K42N, S52F, S93N, F96W, P100Q, D105E
With B2 the ka [1] was 200000 M⁻¹ s⁻¹, the kd [1] was 1.00E−05* s^−1 and the kd ([2]; 25° C.) was 1.76e-05 s⁻¹. For the same molecule, the ka ([2]; 25° C.) was 235000 M⁻¹ s⁻¹, the kd ([2]; 37° C.) was 3.53e-05 s⁻¹ and the ka ([2]; 37° C.) was 701000 M⁻¹ s⁻¹. The kd ([3]; 25° C.) was 1.00E−05* s^−1, the ka ([3]; 25° C.) was 290000 M⁻¹ s⁻¹ and the kd ([3]; 37° C.) was 2.53e-05 s⁻¹. For the same molecule, the ka ([3]; 37° C.) was 663000 M⁻¹ s⁻¹ and the “Ratio of 11 nM Antibody Binding Signal” value (parental HEK293 cells) was 18.

B3: H1H27729P-N297Q: anti-MSR1 antibody "made with an N297Q single point mutation in human Fcγ portion" (antibody, V domains shown)
VH: QVQLVESGGGLVKPGGSLRLSCAASGFIFSDYYMSWIRQAPGKGLEWVSYISSSGTTIYGDSVKGRFTMSRDNAKNSLYLQMNSLRAEDTAVYYCARNYALFDYWGQGTLVTVSS
VL: DIQMTQSPSSLSASVGDRVTITCQASQDISKYLNWYQQKPGKAPKLLIYYTSNLETGVPSRFSGSGSGTDFTFTISSLQPEDIATYYCHQSDYLPFTFGPGTKVDIKR
In the case of B3, the ka [1] is reported as 105000 M⁻¹ s⁻¹, the kd [1] is reported as 0.000906 s⁻¹ and the kd ([2]; 25° C.) is reported as 0.00212 s⁻¹. It also gave a ka ([2]; 25° C.) of 269000 M⁻¹ s⁻¹, a kd ([2]; 37° C.) of 0.00349 s⁻¹ and a ka ([2]; 37° C.) of 407000 M⁻¹ s⁻¹. It also gave a kd ([3]; 25° C.) of 0.00107 s⁻¹, a ka ([3]; 25° C.) of 197000 M⁻¹ s⁻¹ and a kd ([3]; 37° C.) of 0.00204 s⁻¹. For the same molecule, the ka ([3]; 37° C.) was 239000 M⁻¹ s⁻¹ and the “Ratio of 11 nM Antibody Binding Signal” value (parental HEK293 cells) was 3.

B4: H1H21227N-N297D: "The 21227N antibody was also produced as a third version with a N297D mutation" (antibody, V domains shown)
VH: QVQLVQSGAEVKKPGASVKVSCKVSGYTLTELSIHWVRQVPGKGLEWMGGFDPEEGETIFAQEFRDRVTLTEDTSPDTAYMELSSLKSEDAAVYYCTTPRYCNNGICYDYWGQGTLVTVSS
VL: DIQMTQSPSSLSASVGDRVTITCRASQSISNYLNWYQQKPGKAPKLLIYTASSLQSGVPSRFSGSGSGTDFTLTISSLQTEDFATYYCQQSYSNFPITFGQGTRLEIKR
With B4 the kd ([2]; 25° C.) was 4.03e-05 s⁻¹, the ka ([2]; 25° C.) was 1.35e+06 M⁻¹ s⁻¹ and the Kd ([2]; 25° C.) was 29.9 pM. It also gave a t½ ([2]; 25° C.) of 4.78 h, a kd ([2]; 37° C.) of 2.42e-05 s⁻¹ and a ka ([2]; 37° C.) of 2.68e+06 M⁻¹ s⁻¹. For the same molecule, the Kd ([2]; 37° C.) was 9.03 pM, the t½ ([2]; 37° C.) was 7.95 h and the kd ([3]; 25° C.) was 3.79e-05 s⁻¹. It also gave a ka ([3]; 25° C.) of 1.14e+06 M⁻¹ s⁻¹, a Kd ([3]; 25° C.) of 33.3 pM and a t½ ([3]; 25° C.) of 5.08 h. For the same molecule, the kd ([3]; 37° C.) was 1.00E−05* s^−1, the ka ([3]; 37° C.) was 2.73e+06 M⁻¹ s⁻¹ and the Kd ([3]; 37° C.) was 3.66 pM. For the same molecule, the t½ ([3]; 37° C.) was 19.25 h and the “Ratio of 11 nM Antibody Binding Signal” value (parental HEK293 cells) was 1.
